Data from US20210171616A1 (Eli Lilly, published 2021).

T1: PACAP38 (human, K at residue 38 modified by C-terminal amidation)
T1 peptide: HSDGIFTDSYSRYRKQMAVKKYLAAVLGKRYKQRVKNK

T2: PACAP27 (human, L at residue 27 modified by C-terminal amidation)
T2 peptide: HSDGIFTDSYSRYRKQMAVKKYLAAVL

T3: VIP (UniProt P01282 125-152)
T3 peptide (looked up): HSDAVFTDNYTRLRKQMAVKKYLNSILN

T4: N-terminal biotinylated PACAP38 (Anaspec, #23590) (human, N-terminal biotin; K at residue 38 modified by C-terminal amidation (as stated for SEQ ID NO 13))
T4 construct: Bought peptide; also called Antigen (PACAP38)
T4 peptide: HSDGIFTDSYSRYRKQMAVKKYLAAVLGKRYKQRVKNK

T5: N-terminal biotinylated PACAP27 (custom synthesis, CPC Scientific) (human, N-terminal biotin; L at residue 27 modified by C-terminal amidation (as stated for SEQ ID NO 14))
T5 construct: Custom peptide; also called Antigen (PACAP27)
T5 peptide: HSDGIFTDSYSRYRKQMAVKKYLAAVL


Columns and labels:
[1] = target: T1, PACAP38; experiment: cell-based or functional assay
[2] = target: T2, PACAP27; experiment: cell-based or functional assay
[3] = target: T3, VIP; experiment: cell-based or functional assay
[4] = target: T1, PACAP38; experiment: cell-based or functional assay
[5] = target: T2, PACAP27; experiment: cell-based or functional assay
[6] = target: T2, PACAP27; experiment: cell-based or functional assay
[7] = target: T1, PACAP38; experiment: cell-based or functional assay
[8] = target: T1, PACAP38; experiment: cell-based or functional assay
[9] = target: T4, N-terminal biotinylated PACAP38 …; experiment: kinetic exclusion 96-well MSD plate assay, solution equilibrium at 37 C, 30 pM biotinylated antigen
Protocol: (§1) Binding affinity (KD) for each antibody-antigen complex is determined using a kinetic exclusion 96-well plate-based assay (adapted from Estep et al., mAbs, 2013, 5:270-278). Briefly, a 3-fold dilution series for each Exemplified Ab (set forth in Table 1) is prepared from a starting concentration of 7290 pM to 41 fM; each series including an antibody-blank control. Samples are prepared in 3% (w/v) Blocker A solution (MSD, #R93AA-1) and a fixed final antigen concentration of 30 pM of N-terminal biotinylated PACAP27 (custom synthesis, CPC Scientific) or N-terminal biotinylated PACAP38 (Anaspec, #23590) is added to each sample. A volume of 100 μl of each antigen-antibody sample is added to individual wells of a 96-well microtiter plate (Greiner, EK-20101) in duplicate. The plate is sealed with optical adhesive film (Thermo Fisher Scientific, #4311971) and incubated at 37° C. for 3 to 4 days to allow for sample equilibrium. On the day before analysis, each row of a 96-well MSD Standard plate (MSD, #L15XA) is coated with 30 μl of the corresponding antibody (as used in the titration series) at a concentration of 3 μg/ml in phosphate buffered saline (PBS). On the day of the experiment, the MSD Standard plate is washed once with 150 μl PBS and blocked with 150 μl of 3% Blocker A solution for 45 min at 30° C. with shaking at 300 rpm on a MaxQ 4450 benchtop shaker (Thermo Fisher Scientific). Following three washes with PBS, 50 μl of each antigen-antibody sample (prepared and incubated as described above) is added to the MSD Standard plate and incubated for 150 seconds at 30° C. with shaking at 300 rpm. Following a single wash with PBS, 50 μl of 1 μg/ml SULFO-TAG labeled Streptavidin (MSD, #R32AD-5) prepared in 1% (w/v) Blocker A solution is added and the MSD Standard plate and the plate is incubated at 30° C. for 3 minutes with shaking at 300 rpm. The plate is washed three more times with PBS followed by the addition of 150 μl/well of 1× Read buffer (MSD, #R92TC-2). The MSD Standard plate is read using a MESO Quickplex SQ 120/1300 instrument (Meso Scale Discovery). Data analysis is done using SigmaPlot (Version 12.5, Systat Software) and binding affinity (KD) is determined using SigmaPlot's integrated Four Parameter Logistic Curve Model.

[10] = target: T5, N-terminal biotinylated PACAP27 (custom …); experiment: as above
Protocol: as §1

Row | Inhibition (IC50) of PACAP38 (100 pM) induced cAMP in hPAC1 CHO-K1 cells [1] | Inhibition (IC50) of PACAP38 (800 pM) induced cAMP in hVPAC2 CHO-K1 cells [1] | Inhibition (IC50) of PACAP27 (100 pM) induced cAMP in hPAC1 CHO-K1 cells [2] | Inhibition (IC50) of PACAP27 (800 pM) induced cAMP in hVPAC2 CHO-K1 cells [2] | Inhibition (IC50) of VIP (800 pM) induced cAMP in hVPAC2 CHO-K1 cells [3] | Percentage tryptase release in human mast cells upon addition of 1 uM PACAP38; antibody 153 uM, single point [4] | Percentage tryptase release in human mast cells upon addition of 1 uM PACAP27; antibody 153 uM, single point [5] | Percentage tryptase release upon addition of PACAP27; antibody dose 0 uM [6] | Percentage tryptase release upon addition of PACAP27; antibody dose 0.2 uM [6] | Percentage tryptase release upon addition of PACAP27; antibody dose 0.6 uM [6] | Percentage tryptase release upon addition of PACAP27; antibody dose 1.8 uM [6] | Percentage tryptase release upon addition of PACAP27; antibody dose 5.6 uM [6] | Percentage tryptase release upon addition of PACAP27; antibody dose 17 uM [6] | Percentage tryptase release upon addition of PACAP27; antibody dose 51 uM [6] | Percentage tryptase release upon addition of PACAP27; antibody dose 153 uM [6] | Percentage tryptase release upon addition of PACAP38; antibody dose 0 uM [7] | Percentage tryptase release upon addition of PACAP38; antibody dose 0.2 uM [7] | Percentage tryptase release upon addition of PACAP38; antibody dose 0.6 uM [7] | Percentage tryptase release upon addition of PACAP38; antibody dose 1.8 uM [7] | Kd [10] | Binder | other results
1 | 205 pM | 243 pM | 212 pM | 515 pM | > 100000 pM | 4.2% | 15.1% | 92.7% | 86.5% | 73% | 20.3% | 16.4% | 19.8% | 26% | 9.4% | 76.5% | 74% | 64.5% | 31.3% | 10.5 pM | Exemplified Antibody D (antibody, human IgG4 S228P, kappa, F234A L235A, V domains shown, IgG4, kappa light chain; also called Exemplified Ab D; Ab D) VH: EVQLLESGGGLVQPGGSLRLSCAASGFTFSSYYMSWVRQAPGKGLEWVSAISLSGGSTYYAQSHKGRFTISRDNSKNTLYLQMNSLRAEDTAVYYCVREVGASTHNYYGMDVWGQGTMVTVSS VL: DIQMTQSPSSLSASVGDRVTITCRASQSIWRWLAWYQQKPGKAPKLLIHDASQLFEGVPSRFSGSGSGTDFTFTISSLQPEDIATYYCQQFDLLPLTFGGGTKVEIKR | Percentage tryptase release upon addition of PACAP38; antibody dose 5.6 uM [7]: 25.9%; Percentage tryptase release upon addition of PACAP38; antibody dose 17 uM [7]: 19.6%; Percentage tryptase release upon addition of PACAP38; antibody dose 51 uM [7]: 14.7%; Percentage tryptase release upon addition of PACAP38; antibody dose 153 uM [7]: 1.7%; Plasma cAMP levels in CD-1 mice after iv PACAP38 (13 nmols/kg); antibody 10 mg/kg sc [8]: 560 nM; Kd [9]: 9 pM
2 | 303 pM | 325 pM | 311 pM | 595 pM | > 100000 pM | 5.5% | 14.2% | 85.8% | 85.2% | 55.4% | 10.4% | 11.5% | 8% | 17.8% | 9.7% | 80.3% | 77.6% | 66.6% | 26.5% | 14.5 pM | Exemplified Antibody C (antibody, human IgG4 S228P, kappa, F234A L235A, V domains shown, IgG4, kappa light chain; also called Exemplified Ab C; Ab C) VH: EVQLLESGGGLVQPGGSLRLSCAASGFTFSSYYMSWVRQAPGKGLEWVSAISLSGGSTYYAESHKGRFTISRDNSKNTLYLQMNSLRAEDTAVYYCVREVGASTHNYYGMDVWGQGTMVTVSS VL: DIQMTQSPSSLSASVGDRVTITCRASQSIWRWLAWYQQKPGKAPKLLIHDASQLFEGVPSRFSGSGSGTDFTFTISSLQPEDIATYYCQQFDLLPLTFGGGTKVEIKR | Percentage tryptase release upon addition of PACAP38; antibody dose 5.6 uM [7]: 21.9%; Percentage tryptase release upon addition of PACAP38; antibody dose 17 uM [7]: 15.5%; Percentage tryptase release upon addition of PACAP38; antibody dose 51 uM [7]: 12.1%; Percentage tryptase release upon addition of PACAP38; antibody dose 153 uM [7]: 2.8%; Plasma cAMP levels in CD-1 mice after iv PACAP38 (13 nmols/kg); antibody 10 mg/kg sc [8]: 666 nM; Kd [9]: 14.6 pM
3 | 554 pM | 714 pM | 2250 pM | 781 pM | > 100000 pM |  |  |  |  |  |  |  |  |  |  |  |  |  |  | 37 pM | Exemplified Antibody A (antibody, human IgG4 S228P, kappa, F234A L235A, V domains shown, IgG4, kappa light chain; also called Exemplified Ab A; Ab A) VH: EVQLLESGGGLVQPGGSLRLSCAASGFTFSSYYMSWVRQAPGKGLEWVSAISLSGGSTYYADSHKGRFTISRDNSKNTLYLQMNSLRAEDTAVYYCVREVGASNHNYYGMDVWGQGTMVTVSS VL: DIQMTQSPSSLSASVGDRVTITCRASQSISRWLAWYQQKPGKAPKLLIHDASQLLEGVPSRFSGSGSGTDFTFTISSLQPEDIATYYCQQFDLLPLTFGGGTKVEIKR | 
